Source: IntAct's records for PubMed 9528767

B1: Small nuclear ribonucleoprotein E (Saccharomyces cerevisiae), Q12330 (parent)
chain: MSNKVKTKAMVPPINCIFNFLQQQTPVTIWLFEQIGIRIKGKIVGFDEFMNVVIDEAVEIPVNSADGKEDVEKGTPLGKILLKGDNITLITSAD
B2: Small nuclear ribonucleoprotein E (Saccharomyces cerevisiae), Q12330 (parent)
chain: B1 chain
partner: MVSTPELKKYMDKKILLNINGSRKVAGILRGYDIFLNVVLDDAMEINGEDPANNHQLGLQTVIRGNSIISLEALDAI

Variants of: B1
Details: with ruxf_yeast SMX3, P54999
ruxf_yeast SMX3, P54999, sequence (P54999 whole entry): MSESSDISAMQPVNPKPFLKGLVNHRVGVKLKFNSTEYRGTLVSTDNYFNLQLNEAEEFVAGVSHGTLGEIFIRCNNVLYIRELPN
For I90R, the “effect of a mutation on the interaction” value was “decreasing interaction strength”.
With L81P the “effect of a mutation on the interaction” value was “disrupting interaction strength”.
Q22L was tested, and the “effect of a mutation on the interaction” value was “disrupting interaction strength”.
With V27E the “effect of a mutation on the interaction” value was “disrupting interaction strength”.
With G41D the “effect of a mutation on the interaction” value was “disrupting interaction strength”.
M10V was tested, and the “effect of a mutation on the interaction” value was “with no effect”.
In the case of E59A;N63D, the “effect of a mutation on the interaction” value is reported as “with no effect”.
I54N was tested, and the “effect of a mutation on the interaction” value was “disrupting interaction strength”.
In the case of N3T, the “effect of a mutation on the interaction” value is reported as “increasing interaction strength”.
L31S was tested, and the “effect of a mutation on the interaction” value was “with no effect”.
With P76S the “effect of a mutation on the interaction” value was “with no effect”.
In the case of M50A, the “effect of a mutation on the interaction” value is reported as “decreasing interaction strength”.
For I29K, the “effect of a mutation on the interaction” value was “disrupting interaction strength”.
In the case of I80F, the “effect of a mutation on the interaction” value is reported as “decreasing interaction strength”.
With K6E the “effect of a mutation on the interaction” value was “with no effect”.
In the case of D47H, the “effect of a mutation on the interaction” value is reported as “disrupting interaction strength”.
With D47A the “effect of a mutation on the interaction” value was “disrupting interaction strength”.
In the case of G45V, the “effect of a mutation on the interaction” value is reported as “with no effect”.
N51A was tested, and the “effect of a mutation on the interaction” value was “decreasing interaction strength”.

Variants of: B2
Details: with ruxg_yeast SMX2, P40204
With G45V the “effect of a mutation on the interaction” value was “with no effect”.
With M50A the “effect of a mutation on the interaction” value was “decreasing interaction strength”.
With E59A;N63D the “effect of a mutation on the interaction” value was “with no effect”.
N86A was tested, and the “effect of a mutation on the interaction” value was “decreasing interaction strength”.
N3T was tested, and the “effect of a mutation on the interaction” value was “with no effect”.
I29K was tested, and the “effect of a mutation on the interaction” value was “disrupting interaction strength”.
In the case of V27E, the “effect of a mutation on the interaction” value is reported as “disrupting interaction strength”.
For M10V, the “effect of a mutation on the interaction” value was “with no effect”.
For G41D, the “effect of a mutation on the interaction” value was “disrupting interaction strength”.
In the case of I80F, the “effect of a mutation on the interaction” value is reported as “with no effect”.
N51A was tested, and the “effect of a mutation on the interaction” value was “with no effect”.
For D47A, the “effect of a mutation on the interaction” value was “decreasing interaction strength”.
D47H was tested, and the “effect of a mutation on the interaction” value was “decreasing interaction strength”.
L81P was tested, and the “effect of a mutation on the interaction” value was “with no effect”.
For G84A, the “effect of a mutation on the interaction” value was “with no effect”.
K83V was tested, and the “effect of a mutation on the interaction” value was “with no effect”.
K6E was tested, and the “effect of a mutation on the interaction” value was “with no effect”.
In the case of I54N, the “effect of a mutation on the interaction” value is reported as “disrupting interaction strength”.
In the case of P76S, the “effect of a mutation on the interaction” value is reported as “with no effect”.
With I90R the “effect of a mutation on the interaction” value was “disrupting interaction strength”.
In the case of L31S, the “effect of a mutation on the interaction” value is reported as “with no effect”.

Variants of: B2
Details: with ruxg_yeast SMX2, P40204
Remark: another data set of the same source
For Q22L, the “effect of a mutation on the interaction” value was “disrupting interaction strength”.
